From patent publication US6458926 come the findings set out here.

The test deals with GAL-RXR (yeast GAL4 DBD linked to the human RXRα LBD) (yeast; human) (UniProt P04386). As to the kind of experiment: cell-based or functional assay.

Sequence of T3R LBD (SV40 TAg NLS fused upstream of human T3Rβ LBD) (P10828 other isoform, or with tags, fused parts or gaps): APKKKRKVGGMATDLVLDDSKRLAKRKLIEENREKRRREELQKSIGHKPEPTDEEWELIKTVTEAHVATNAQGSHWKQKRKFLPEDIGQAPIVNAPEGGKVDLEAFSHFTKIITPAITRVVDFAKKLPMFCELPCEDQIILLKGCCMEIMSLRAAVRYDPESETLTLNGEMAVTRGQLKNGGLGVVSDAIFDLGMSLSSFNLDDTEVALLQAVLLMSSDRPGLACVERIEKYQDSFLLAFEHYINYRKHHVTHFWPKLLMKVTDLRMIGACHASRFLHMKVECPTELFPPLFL

“T3R LBD (SV40 TAg NLS fused upstream of human T3Rβ LBD) (from UniProt P10828 173-456)” yielded a fold response to LG69 of 57 fold.
